Experimental data: the RNAGym collection of RNA variant scans (doi:10.1073/pnas.2313332121)
Variants at the floor of the assay were thinned out.

B1: TPR 5TU (parent)
chain: GGAUCUUCUCGAUCUAACAAAAAAGACAAAUCUGCCACAAAGCUUGAGAGCAUCUUCGGAUGCAGAGGCGGCAGCCUUCGGUGGCGCGAUAGCGCCAACGUUCUCAACUAUGACACGCAAAACGCGUGCUCCGUUGAAUGGAGUUUAUCAUG

Variants of: B1
Test: polymerase ribozyme fitness, log enrichment relative to wild type (log ratio); higher = more active; in vitro selection for triplet polymerase activity
In short: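 Fitness is a logarithmic measure of how a genotype enriched relative to the wild type, with replicate averages weighted by inverse variance. The logarithm uses base 2, and enrichment came from Illumina sequencing of input and output libraries. Those libraries were PCR-built, transcribed mutants of each subunit of a heterodimeric triplet polymerase ribozyme, passed through one triplicate in vitro selection round that included frozen incubation at −7 °C, gel excision of extended constructs and streptavidin-bead capture. Genotypes were kept only if they had ≥10 input reads and ≥1 read per output.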

Polymerase ribozyme fitness (log ratio), ≤ -4.2:
GGAACUUCUCGAUCUAAUAAAAAAGACAAAUCUGCCACAAAGCUUGAGAGCAUCUUCGGAUGCCGAGACGGCAGCCUUGGGUGGCGCGAUAGCGCCAACGUUCUCAACUAUGACACGCAAAACGCGUGCUCCGUUGAAUGGAGUUUAUCAUG [U4A C18U A64C G68A C79G]
GGAACUUCUCGAUCUAACAAAAAAGACAAAUCUGCCACAAAGCUUGAGAGCAUCUUCGGUUGCAGAGGCGGCAGCCUUCGGUGGCACGAUAGCGCCAACGUUCUCAGCUAUGACACGCAAACCGCGUGCUCCGUUGAAUGGAGUUUAUCAUG [U4A A60U G86A A107G A122C]
GGAACUUCUCGAUCUAAUAAAAAAGACAAAUCUGCCACAAAGCUUGAGAGCAUCUUCGGAUGCAGAAGCGGCAGCCUUCGGUGGCGCGAUAGGGCCAACGUUCUCAACUAUGACACGCAAAACACGUGCUCCGUUGAAUGGAGUUUAUCAUG [U4A C18U G67A C93G G124A]
GGAACUUCUUGAUCUAGCAACAAAGACAAAUCUGCCACAAAGUUUGAGAGCAUCUUCGGAUGCAGAGGCGGCAGCCUUCGGUGGCGCGAUAACGCCAACGUUCUAAACUAUGACACGCAAAACCCGUGCUCCGUUGAAUGGAGUUUAUCAUG [U4A C10U A17G A21C C43U G92A C105A G124C]
GGAACUUCUCGAUCUAACAAAAAAGACAAAUCUGCCACCAAGCUUGAGAGCAACUUCGGAUGCAGAGGCGGCAGCCUUCGGUGGCGCGAUAGCGCUAACGUUCUCAAUUAUGACACGCAUAACGUGUGCUCCGUUGAAUGGAGUUUAUCAUG [U4A A39C U53A C96U C108U A120U C125U]
GGAACUUCUCGAUCUAACAAAAAAGGCAAAUCUGCCACAAAGCUUGAGCGCAUCUUCGGAUGCAGAGGCGGCAGCCUUCGGUGGCGCGAUAGCGCCAACGUUCUCAGCUAUGACACGCAAAACGCGUGCUCCGUUGAAUGGAGUUUAUCAUG [U4A A26G A49C A107G]
GGAACUUCUCGAUCUAACAAAAAAGACAAAUCUGCCCCAAAGCUUGAGAGCAUCUUCGGAAGCAGGGGCGGCAGCCUUCGGUGGCGCGAUAGCGCCAACGUUCUCAACUAUGACACGCAAAACGCGUGCUCCUUUGAAUGGAGAUUAUCAUG [U4A A37C U61A A66G G133U U144A]
GGAACUUCUCGAUCUAACAAAAAAGACAAAUCUGCAACAAAGCUUGACAGCAUCUUCGGAUGCAGAGGCGGCAGCCUUCGGUGGCACGAUAGCGCCAACGUUCUCAACUAUGACACGCAAAACGCGUGCUCCGUUGAAUGGAGUUUAUCAUG [U4A C36A G48C G86A]
GGAACUUCUCGAUCUAACAGAAAAGACAAAUCUGACACAAAGCUUGAGAGCAUCGUCGGAUGCAGAGGCGGUAGCCUUCGGUGGCGCGAUAGCGCCAAUGUUCUCAACUAUGACACGCAUAACGCGUGCUCCGUUGAAUGGAGUUAAUCAUG [U4A A20G C35A U55G C72U C99U A120U U146A]
GGAAGUUCUCGAUCUAACAAAUAAUACAAUUCUGCCACAAAGCUUGAGAGCAUCUUCGGAUGUAGCGGCGGCAGCCUUCGGUGGCGCGAUAGCGCCAACGUUCUCAACUAUGACACGCAAAACGCGUGCUCCGUUGAAUGGAUUUUAUCAUG [U4A C5G A22U G25U A30U C63U A66C G143U]
GGAACUUCUCGAUCUAACAAAAAAGACAAAUCUGCCAAAAAGCUUGAGAGCAGCUUCGGAUGCAGAGGCGGCAGCCUUCGGUGGUGCGAUAGCCCCAACGUUCUCAGCUAUGACACGCAAAACGCGUGCUCCGUUGCAUAGAGUUUAUCAUG [U4A C38A U53G C85U G94C A107G A137C G140A]
GGAACUUCUCGAUCUAACAAAAAAGACAGAUCUGCCACAAAGCUUGAGAGCAUCUUCGGAAGCAGAGGCGGCAGCCUUCGGUGGCGCGAUAGCUCCAACGUUCUCAACUAUGACACGCAAAACGCUUGCUCCUUUGAAUGGAGUUUAUCAGG [U4A A29G U61A G94U G126U G133U U151G]
GGAAGUUCUCGAUCUAACAAAAAAGACAAAUCUGCCACAAAGCUUGAGAGCAUCUUCGGAUGCAGAGGUGGCAGCCUUUGGUGGUGCGAUAGCCCCAACGUUCUCAACUAUGACACACAAAACGCGUUCUCCGUUGAAUGGAGUUUAUCAUG [U4A C5G C69U C79U C85U G94C G117A G128U]
GGAACUUCUCGAUCUAACUAAAAUGACAAAUCUGACACAAAGCUUGAGAGCAUCUUGGGCUGCAGAGGCGGCAGCCUUCGGUGGCGCGAUAGCGCCAACGGUCUCAACUAUGACACGCAAAACGCGUGCUCCGUUGAAUGGAGUUUAUCAUG [U4A A19U A24U C35A C57G A60C U101G]

Polymerase ribozyme fitness (log ratio), -3.84:
GGAACUUCUCGAUCUAACCAAAAAGACAAAUCUGCCACAAUGCUUGAGAGCAUCUCCGGAUGCAGAGGCGGCAGCCUUCGGUGGCGCGAUAGCGCCAACGUUCUCAACUAUGACACGCAAAACACGUGCUCCGUUGAAUGGAAUUUAUCAUG [U4A A19C A41U U56C G124A G143A]

Polymerase ribozyme fitness (log ratio), -3.48:
GGAACUUCUCGAUCUAACAAACAAGACAAAUCUGCCACAAAGCUUGAGAGCAUCUACGGAUGCAGAGGCGGCAGCCUUCGGUGGCGCGAUAGCGCCAACGUUCUCAACUAUGACACGCAAAACUCGUGCUCCGUCGAAUGGAGUUUAUCAUG [U4A A22C U56A G124U U135C]

Polymerase ribozyme fitness (log ratio), -4.19:
GGAACUUCUCGAUCUAACAAAAAAGACAAAUCUGCCUCAAAGCUUGAGAGCAUCUUCGGAUGCAGAGGCGGCAGCCUUCGGUGGCGCGAUAGCCCCAACGUUCUCAACUAUGACACGCAAAACGCGUGCUCCGUUGAAUGGAGUUUAUCGUG [U4A A37U G94C A150G]

Polymerase ribozyme fitness (log ratio), -4.11:
GGAACUUAUCGAUCUAACAAAAAAGACAAAUCUGCCACAAAGCUUGAGAGCAUCUACGGAUGCAGAGGCGGCAGCCUUCGGUGGCGCGAUAGCGCCAACGUUCUCAACUAUGACACGCAAAGCGCGUGCUCCGUUGAAUGAAGUUUAUCAUG [U4A C8A U56A A122G G141A]

Polymerase ribozyme fitness (log ratio), -3.69:
GGAACUUCUCGAUGUAACAAAAAAGACAAAUCUGCCACAGAGCUUGAGAGCAUCUUCGGAUGCAGAGGCGGCAGCCUUCGGUGGCGCGAUAGCGCCAACGUUCUCAACUAUGACACGCAAAACGCGUGCUCCGUUGAAUGGAGUUUAUCAUG [U4A C14G A40G]
